# Test results taken from paper PMC2936782 (Cell, 2010).
# B1: PlexinC1-ECD (entire extracellular segment) (receptor, human, UniProt O60486 35-944, looked up)
# chain: ADEPVWRSEQAIGAIAASQEDGVFVASGSCLDQLDYSLEHSLSRLYRDQAGNCTEPVSLAPPARPRPGSSFSKLLLPYREGAAGLGGLLLTGWTFDRGACEVRPLGNLSRNSLRNGTEVVSCHPQGSTAGVVYRAGRNNRWYLAVAATYVLPEPETASRCNPAASDHDTAIALKDTEGRSLATQELGRLKLCEGAGSLHFVDAFLWNGSIYFPYYPYNYTSGAATGWPSMARIAQSTEVLFQGQASLDCGHGHPDGRRLLLSSSLVEALDVWAGVFSAAAGEGQERRSPTTTALCLFRMSEIQARAKRVSWDFKTAESHCKEGDQPERVQPIASSTLIHSDLTSVYGTVVMNRTVLFLGTGDGQLLKVILGENLTSNCPEVIYEIKEETPVFYKLVPDPVKNIYIYLTAGKEVRRIRVANCNKHKSCSECLTATDPHCGWCHSLQRCTFQGDCVHSENLENWLDISSGAKKCPKIQIIRSSKEKTTVTMVGSFSPRHSKCMVKNVDSSRELCQNKSQPNRTCTCSIPTRATYKDVSVVNVMFSFGSWNLSDRFNFTNCSSLKECPACVETGCAWCKSARRCIHPFTACDPSDYERNQEQCPVAVEKTSGGGRPKENKGNRTNQALQVFYIKSIEPQKVSTLGKSNVIVTGANFTRASNITMILKGTSTCDKDVIQVSHVLNDTHMKFSLPSSRKEMKDVCIQFDGGNCSSVGSLSYIALPHCSLIFPATTWISGGQNITMMGRNFDVIDNLIISHELKGNINVSEYCVATYCGFLAPSLKSSKVRTNVTVKLRVQDTYLDCGTLQYREDPRFTGYRVESEVDTELEVKIQKENDNFNISKKDIEITLFHGENGQLNCSFENITRNQDLTTILCKIKGIKTASTIANSSKKVRVKLGNLELYVEQESVPST
# How the values were obtained:
# [1] = molecular target: PlexinC1 (Homo sapiens) (UniProt O60486); test: Scatchard analysis; conditions: cited from earlier work
# [2] = molecular target: Sema7A, extracellular segment, glycan-trimmed (for crystallization) (human) (UniProt O75326); test: SEC
# [3] = molecular target: Sema7A, extracellular segment, glycan-trimmed (for crystallization) (human) (UniProt O75326); test: crystal structure
# [4] = molecular target: PlexinC1-SemaPSI (Sema domain plus the first PSI domain) (human) (UniProt O60486); test: ITC
# [5] = molecular target: the molecule itself; test: SEC + cross-linking
molecule,measurement,setting,value
Sema7A (from UniProt O75326),Kd,[1],2.1 nM
"Sema7A, extracellular segment, glycan-trimmed (for crystallization) (from UniProt O75326 45-648) (ligand)",stoichiometry N,[2],2
same,stoichiometry N,[3],2
"Sema7A, entire extracellular segment excluding the GPI anchor (from UniProt O75326 45-648) (ligand)",Kd,[4],290 nM
same,dH,[4],-2 kcal/mol
B1,binding result,[5],binds
